Test results as given in publication PMC2775898 (The EMBO Journal, 2009).
Where no end group is shown, it is not given here. The star is where a group is joined. Biotin = O=C1N[C@H]2[C@H](CS[C@H]2CCCCC(=O)*)N1

Tests used:
[1] = target: T1, Tiam1 PHCCEx domain (PH-CC-Ex region, residues 429-702) (mouse, UniProt Q60610 429-702); test: SPR
T1 sequence (looked up): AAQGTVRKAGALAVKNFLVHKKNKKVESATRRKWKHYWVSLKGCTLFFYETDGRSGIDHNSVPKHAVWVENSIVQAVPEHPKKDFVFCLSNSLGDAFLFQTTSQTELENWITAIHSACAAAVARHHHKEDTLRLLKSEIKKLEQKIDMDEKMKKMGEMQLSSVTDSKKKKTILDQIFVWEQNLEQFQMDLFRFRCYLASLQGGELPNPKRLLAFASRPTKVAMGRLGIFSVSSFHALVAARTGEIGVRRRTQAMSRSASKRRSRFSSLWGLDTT

[2] = target: T2, Tiam2 PHCCEx domain (PH-CC-Ex region, residues 500-757) (mouse, UniProt Q6ZPF3 500-757); test: SPR
T2 sequence (looked up): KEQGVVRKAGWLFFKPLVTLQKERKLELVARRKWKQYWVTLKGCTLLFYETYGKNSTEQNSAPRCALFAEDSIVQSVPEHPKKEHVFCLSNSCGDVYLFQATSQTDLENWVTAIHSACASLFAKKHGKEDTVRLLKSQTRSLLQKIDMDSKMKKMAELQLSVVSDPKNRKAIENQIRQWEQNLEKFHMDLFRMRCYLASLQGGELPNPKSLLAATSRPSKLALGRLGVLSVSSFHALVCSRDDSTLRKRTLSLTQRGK

[3] = target: T3, Tiam2 PHCCEx domain, alanine mutant Arg716 (R716A) (mouse, UniProt Q6ZPF3 500-757, R716A); test: SPR
T3 sequence (looked up): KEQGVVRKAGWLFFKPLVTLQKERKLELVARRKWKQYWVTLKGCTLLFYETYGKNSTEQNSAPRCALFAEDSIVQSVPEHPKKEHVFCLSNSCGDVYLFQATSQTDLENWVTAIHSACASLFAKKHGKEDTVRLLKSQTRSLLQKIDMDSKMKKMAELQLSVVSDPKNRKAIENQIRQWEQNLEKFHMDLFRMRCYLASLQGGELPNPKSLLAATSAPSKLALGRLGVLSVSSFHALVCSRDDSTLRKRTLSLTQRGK

[4] = target: T4, Tiam2 PHCCEx domain, alanine mutant Lys653 (mouse, UniProt Q6ZPF3 500-757, alanine mutant Lys653); test: SPR
T4 sequence (looked up): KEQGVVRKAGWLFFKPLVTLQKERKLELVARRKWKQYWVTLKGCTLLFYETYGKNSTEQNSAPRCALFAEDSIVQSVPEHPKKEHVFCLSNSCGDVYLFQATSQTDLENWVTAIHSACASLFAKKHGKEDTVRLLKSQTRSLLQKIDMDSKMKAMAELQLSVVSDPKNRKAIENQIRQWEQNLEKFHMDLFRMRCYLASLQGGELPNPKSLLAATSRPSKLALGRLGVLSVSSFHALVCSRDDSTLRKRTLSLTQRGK

[5] = target: T5, Tiam2 PHCCEx domain, alanine mutant Arg693 (R693A) (mouse, UniProt Q6ZPF3 500-757, R693A); test: SPR
T5 sequence (looked up): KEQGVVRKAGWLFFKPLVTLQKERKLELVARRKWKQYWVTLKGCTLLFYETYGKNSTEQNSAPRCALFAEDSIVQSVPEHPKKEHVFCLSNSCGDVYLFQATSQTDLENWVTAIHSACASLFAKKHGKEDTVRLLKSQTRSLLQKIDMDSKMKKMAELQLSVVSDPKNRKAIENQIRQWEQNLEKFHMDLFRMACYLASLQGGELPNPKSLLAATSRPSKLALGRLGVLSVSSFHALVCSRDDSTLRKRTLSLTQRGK

[6] = target: T6, Tiam2 PHCCEx domain, alanine mutant Lys627 (mouse, UniProt Q6ZPF3 500-757, alanine mutant Lys627); test: SPR
T6 sequence (looked up): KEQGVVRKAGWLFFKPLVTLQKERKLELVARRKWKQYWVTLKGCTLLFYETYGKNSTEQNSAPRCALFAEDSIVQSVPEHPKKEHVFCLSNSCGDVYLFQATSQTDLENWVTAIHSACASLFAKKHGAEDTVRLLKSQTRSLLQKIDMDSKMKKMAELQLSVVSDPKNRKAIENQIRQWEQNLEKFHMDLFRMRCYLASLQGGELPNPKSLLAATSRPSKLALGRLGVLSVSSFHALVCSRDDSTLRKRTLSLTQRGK

[7] = target: T7, Tiam2 PHCCEx domain, alanine mutant Arg632 (mouse, UniProt Q6ZPF3 500-757, alanine mutant Arg632); test: SPR
T7 sequence (looked up): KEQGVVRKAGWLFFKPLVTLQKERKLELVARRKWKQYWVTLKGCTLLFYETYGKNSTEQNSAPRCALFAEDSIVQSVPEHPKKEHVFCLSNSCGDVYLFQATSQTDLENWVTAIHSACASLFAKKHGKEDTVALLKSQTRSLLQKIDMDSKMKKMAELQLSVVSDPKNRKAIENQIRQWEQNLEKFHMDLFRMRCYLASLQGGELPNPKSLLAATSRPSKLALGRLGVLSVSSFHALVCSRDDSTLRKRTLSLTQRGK

[8] = target: T8, Tiam2 PHCCEx domain, alanine mutant Arg691 (mouse, UniProt Q6ZPF3 500-757, alanine mutant Arg691); test: SPR
T8 sequence (looked up): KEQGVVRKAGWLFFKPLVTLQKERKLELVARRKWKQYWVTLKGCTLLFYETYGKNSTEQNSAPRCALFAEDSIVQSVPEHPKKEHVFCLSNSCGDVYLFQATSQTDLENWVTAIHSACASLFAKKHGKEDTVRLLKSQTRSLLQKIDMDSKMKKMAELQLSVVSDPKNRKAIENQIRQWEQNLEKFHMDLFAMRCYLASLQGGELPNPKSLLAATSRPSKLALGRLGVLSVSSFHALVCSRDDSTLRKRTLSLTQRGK

[9] = target: T9, Tiam2 PHCCEx domain, alanine mutant Lys624 (mouse, UniProt Q6ZPF3 500-757, alanine mutant Lys624); test: SPR
T9 sequence (looked up): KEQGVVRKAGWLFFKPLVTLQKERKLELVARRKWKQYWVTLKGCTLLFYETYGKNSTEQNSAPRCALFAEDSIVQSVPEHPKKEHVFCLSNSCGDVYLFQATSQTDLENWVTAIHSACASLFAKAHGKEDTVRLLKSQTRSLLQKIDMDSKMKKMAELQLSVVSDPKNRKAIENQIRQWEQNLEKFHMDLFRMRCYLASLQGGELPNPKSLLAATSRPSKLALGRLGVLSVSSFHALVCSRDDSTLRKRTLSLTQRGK

[10] = target: T10, Tiam2 PHCCEx domain, alanine mutant Lys650 (mouse, UniProt Q6ZPF3 500-757, alanine mutant Lys650); test: SPR
T10 sequence (looked up): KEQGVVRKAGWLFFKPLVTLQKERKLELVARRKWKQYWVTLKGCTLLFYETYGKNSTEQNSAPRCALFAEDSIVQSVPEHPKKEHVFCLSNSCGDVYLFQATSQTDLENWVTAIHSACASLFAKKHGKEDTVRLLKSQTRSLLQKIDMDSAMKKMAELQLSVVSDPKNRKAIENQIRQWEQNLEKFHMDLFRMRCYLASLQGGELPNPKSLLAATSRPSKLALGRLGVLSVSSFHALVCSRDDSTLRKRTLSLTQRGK

[11] = target: GFP-tagged full-length Par3 (UniProt Q9Z340 1-1337); test: co-IP
Chain of GFP-tagged full-length Par3 (Q9Z340 whole entry): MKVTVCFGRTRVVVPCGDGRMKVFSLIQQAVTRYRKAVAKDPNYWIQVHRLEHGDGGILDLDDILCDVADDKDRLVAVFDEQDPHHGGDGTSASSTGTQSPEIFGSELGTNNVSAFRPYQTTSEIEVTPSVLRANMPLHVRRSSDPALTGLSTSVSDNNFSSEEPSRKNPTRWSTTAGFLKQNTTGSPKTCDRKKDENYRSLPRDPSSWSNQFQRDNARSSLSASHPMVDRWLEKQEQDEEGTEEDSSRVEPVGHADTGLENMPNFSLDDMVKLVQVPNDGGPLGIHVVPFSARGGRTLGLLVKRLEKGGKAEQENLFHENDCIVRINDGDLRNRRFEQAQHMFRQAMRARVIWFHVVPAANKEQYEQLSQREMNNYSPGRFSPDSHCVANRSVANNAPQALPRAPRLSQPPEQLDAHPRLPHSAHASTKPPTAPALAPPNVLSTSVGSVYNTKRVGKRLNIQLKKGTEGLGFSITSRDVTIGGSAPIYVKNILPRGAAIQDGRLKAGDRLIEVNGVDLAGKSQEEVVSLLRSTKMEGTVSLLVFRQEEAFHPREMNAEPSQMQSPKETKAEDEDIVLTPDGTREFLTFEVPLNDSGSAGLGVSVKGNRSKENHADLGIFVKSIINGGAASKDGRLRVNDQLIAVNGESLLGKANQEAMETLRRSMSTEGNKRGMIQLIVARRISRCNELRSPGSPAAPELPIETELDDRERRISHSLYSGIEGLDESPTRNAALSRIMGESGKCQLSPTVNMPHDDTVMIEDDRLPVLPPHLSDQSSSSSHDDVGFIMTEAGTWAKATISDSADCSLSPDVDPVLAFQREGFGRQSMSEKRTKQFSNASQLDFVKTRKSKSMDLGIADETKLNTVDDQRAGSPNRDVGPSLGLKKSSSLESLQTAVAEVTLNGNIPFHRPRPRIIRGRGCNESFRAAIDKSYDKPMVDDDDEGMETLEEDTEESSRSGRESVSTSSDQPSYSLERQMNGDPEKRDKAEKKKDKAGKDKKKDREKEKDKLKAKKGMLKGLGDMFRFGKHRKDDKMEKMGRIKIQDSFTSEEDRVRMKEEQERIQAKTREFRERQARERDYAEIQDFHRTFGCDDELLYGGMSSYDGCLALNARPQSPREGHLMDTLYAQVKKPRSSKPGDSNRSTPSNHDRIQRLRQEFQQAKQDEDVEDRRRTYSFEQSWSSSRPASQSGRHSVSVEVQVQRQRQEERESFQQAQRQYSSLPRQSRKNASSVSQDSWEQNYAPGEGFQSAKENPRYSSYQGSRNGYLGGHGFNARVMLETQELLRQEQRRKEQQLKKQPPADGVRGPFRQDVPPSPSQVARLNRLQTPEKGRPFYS

B1: NMDAR loop I peptide (residues 591-610) (peptide)
peptide: not shown
modifications: biotin on the N-terminus
[1]
  binding result: binds

## Biotin-SQEMVHLVNKEPSETPDQCMTADE (peptide, UniProt P15379-2 327-350, looked up) [CD44 acidic peptide comprising 24 residues (327-350)]
[1]
  binding result: binds
[2]
  Kd: 920 nM
[3]
  binding result: binds
[4]
  binding result: binds
[5]
  binding result: binds
[6]
  binding result: binds
[7]
  binding result: binds
[8]
  binding result: binds
[9]
  binding result: binds
[10]
  binding result: binds

## KPMVDDDDEGMETLEEDTEESSRSGRESVS (peptide, UniProt Q99NH2 931-960, looked up, biotin on the N-terminus) [Par3 acidic cluster peptide (mouse residues 931-960)]
[2]
  Kd: 380 nM

B2: HA-tagged full-length Tiam1 with a double mutation (R622A and R645A) (natural protein, UniProt Q60610 1-1591, looked up)
chain: MGNAESQNVDHEFYGEKHASLGRKHTSRSLRLSHKTRRTRHASSGKAIHRNSEVSTRSSSTPSIPQSLAENGLEPFSQEGALDDFGDPIWVDRVDMGLRPVSYTDSSVTPSVDGSIVLTAASVQSMPDSEESRLYGDDATYLAEGGRRQCPYTSNGPTFMETASFKKKRSKSADIWREDSLEFSLSDLSQEHLTSNEEILGSAEEKDCEEARGMETEASPRQLSTCQRANSLGDLYAQKNSGVKANGGPRNRFSSYCRNLVSDIPDLAKHKMPPAAAEETPPYSNYNTLPCRKSHCLSEGATNPQISLSKSMQGRRAKTTQDVNTGEGSEFADSGIEGATTDTDLLSRRSNATNSSYSPPTGRAFVGSDSGSSSTGDRARQGVYENFRRELEMSTTNSESLEEAGSAHSDEQSSGTLSSPGQSDILLTAAQGTVRKAGALAVKNFLVHKKNKKVESATRRKWKHYWVSLKGCTLFFYETDGRSGIDHNSVPKHAVWVENSIVQAVPEHPKKDFVFCLSNSLGDAFLFQTTSQTELENWITAIHSACAAAVARHHHKEDTLRLLKSEIKKLEQKIDMDEKMKKMGEMQLSSVTDSKKKKTILDQIFVWEQNLEQFQMDLFRFACYLASLQGGELPNPKRLLAFASAPTKVAMGRLGIFSVSSFHALVAARTGEIGVRRRTQAMSRSASKRRSRFSSLWGLDTTSKKKQGRPTINQVFGEGTDAVKRSLEGIFDDTVPDGKREKEVVLPSVHQHNPDCDIWVHEYFTPSWFCLPNNQPALTVVRPGDTARDTLELICKTHQLDHSAHYLRLKFLMENRVQFYIPQPEEDIYELLYKEIEICPKVTQNIHIEKSDAAADNYGFLLSSVDEDGIRRLYVNSVKETGLASKKGLKAGDEILEINNRAAGTLNSSMLKDFLSQPSLGLLVRTYPEPEGGVELLENPPHRVDGPVDLGESPLAFLTSNPGHSLSSEQGSSAETAPEEGEGPDLESSDETDHSSKSTEQVAAFCRSLHEMSPSDSSPSPQDATSPQLATTRQLSDADKLRKVICELLETERTYVKDLNCLMERYLKPLQKETFLTQDELDVLFGNLTEMVEFQVEFLKTLEDGVRLVPDLEKLEKVDQFKKVLFSLGGSFLYYADRFKLYSAFCASHTKVPKVLVKAKTDTAFKAFLDAQNPRQQHSSTLESYLIKPIQRVLKYPLLLRELFALTDAESEEHYHLDVAIKTMNKVASHINEMQKIHEEFGAVFDQLIAEQTGEKKEVADLSMGDLLLHTSVIWLNPPASLGKWKKEPELAAFVFKTAVVLVYKDGSKQKKKLVGSHRLSIYEEWDPFRFRHMIPTEALQVRALPSADAEANAVCEIVHVKSESEGRPERVFHLCCSSPESRKDFLKSVHSILRDKHRRQLLKTESLPSAQQYVPFGGKRLCALKGARPAMSRAVSAPSKSLGRRRRRLARNRFTIDSDAISASSPEKEPQQPAGGGDTDRWVEEQFDLAQYEEQDDIKETDILSDDDEFCESLKGASVDRDLQEQLQAASISQRARGRRTLDSHASRMTQLKKQAALSGINGGLESASEEVIWVRREDFAPSRKLNTEI
[11]
  Par3 binding relative to wild-type Tiam1: ~65%
